Where two headings read alike, the source gives them in different places.
Assays:
[1] = molecular target: T1, SARS-CoV-2 Nsp9, wild type, purified recombinant (SARS-CoV-2, UniProt P0DTD1)
[2] = molecular target: T1, SARS-CoV-2 Nsp9, wild type, purified …; assay: far-Western, overlay or dot blot; details: both partners purified
[3] = molecular target: T1, SARS-CoV-2 Nsp9, wild type, purified …; assay: NMR titration; details: both partners purified

Binder | binding result [1] | further results
2INS27 (VHH) VHH: QVQLQESGGGLVQAGGSLRLSCATSGSIFSSAVMGWYRQAPGNERELVALIGSSDTTDYSNSVKGRFTISRDNAKNTAYLRMNSLKPEDTAVYYCTAVKYGLGGFVYWGQGTQVTVSS | binds | –
3NSP78 (VHH) VHH: QVQLQESGGGLVQAGGSLRLSCAASGRAFSSYVMGWFRQAPGKEREFVAAIHWTGAATVYVDSVKGRFAISRHNAKNTVYLEMNSLKPEDTAVYYCAADPSGSYWPPKRYDYWGQGTQVTVSS | binds | –
nanobody 2NSP23 (VHH) VHH: QVQLQESGGGLVQPGGSLRLSCAASGLAFSMYTMGWFRQAPGKEREFVAMIISSGDSTDYADSVKGRFTISRDNGKNTVYLQMDSLKPEDTAVYYCAAPKFRYYFSTSPGDFDSWGQGTQVTVSS | – | binding result [2]: binds
2INS69 (VHH) VHH: QVQLQESGGGLVRAGDSLRLSCAVSGRTFSSVAMGWFRQAPGKEREFVAFISGSTGSVTYYADSVKGRFAISRDNAKNTVYLQMNSLKPEDTAVYDCAAKFTGTFNYQGLYDYWGQGTQVTVSS | binds | –
nanobody 2NSP90 (VHH) VHH: QVQLQESGGGLVQTGDSLRLSCAVSGRTFSTYSVGWFRQAPGKEREFVALRWSGGTTYYADSVVGRFTVSRDNAKNTVYLEMNSLKPEDTAVYYCAADRGSGSYSPTYRWDYWGQGTQVTVSS | – | stoichiometry N [3]: 3 to 4
3NSP52 (VHH) VHH: QVQLQESGGGLVQPEGSLRLSCAASGLTFDSYAIGWFRQAPGKEREFVAASIWSGDSGHYTGSVKGRFTISRDNAKNTVDLQMNSLKPEDTAVYYCAASASFLHSANYHMRAKWGYWGQGTQVTVSS | binds | –
2INS64 (VHH) VHH: QVQLQESGGGLVQVGGSLRLSCAASGSILSINAMGWYRQAPGKQRELVAAITSGGSTNYADSVKGRFTISRDNAKNMLYLQMNSLKPEDTAVYYCHVVTGWGPLDWGQGTQVTVSS | binds | –
2INS45 (VHH) VHH: QVQLQESGGGLVQAGGSLRLSCAASGFTLSSNDMGWYRQAPGKQRELVATITSGLSTNYADSVKGRFTISRDNAKNTVFLQMNSLKIEDTAVYYCEVERGWGPPRDYWGHGTQVTVSS | binds | –

Reference: PMC8646926 (Advanced Biology, 2021)
